Measurements: FireProtDB (doi:10.1021/bi0015717)
Values joined by “and” are separate entries in the source; they are usually repeats but may differ in a detail not shown here. Equal entries are not always repeated.

B1: Lysozyme C, P61626 (parent)
chain: MKALIVLGLVLLSVTVQGKVFERCELARTLKRLGMDGYRGISLANWMCLAKWESGYNTRATNYNAGDRSTDYGIFQINSRYWCNDGKTPGAVNACHLSCSALLQDNIADAVACAKRVVRDPQGIRAWVAWRNRCQNRDVRQYVQGCGV

Variants of: B1
Conditions: Homo sapiens; pH 2.53; Thermal; DSC; glycine-HCl 0.05 M; reversible: yes; structure 1LZ1; whole UniProt chain shown

| Variant | Tm | unfolding enthalpy (calorimetric) |
| --- | --- | --- |
| MKALIVLGLVLLSVTVQGKVFERCELARTLKRLGMDGYRGISLANWMCLAKWESGYNTRATNYNAGDRSTDYGIFQINSRYWCNDGKTPGAGNACHLSCSALLQDNIADAVACAKRVVRDPQGIRAWVAWRNRCQNRDVRQYVQGCGV | 61.3 °C | 108 kcal/mol |

Same assay, conditions: Homo sapiens; pH 2.7; 64.9 °C; Thermal; DSC; glycine-HCl 0.05 M; reversible: yes; structure 1LZ1; whole UniProt chain shown

| Variant | ddG of mutation (higher = less stable) |
| --- | --- |
| MKALIVLGLVLLSVTVQGKVFERCELARTLKRLGMDGYRGISLANWMCLAKWESGYNTRATNYNAGDRSTDYGIFQINSRYWCNDGKTPGAGNACHLSCSALLQDNIADAVACAKRVVRDPQGIRAWVAWRNRCQNRDVRQYVQGCGV | 0.22 kcal/mol |
| MKALIVLGLVLLSVTVQGKVFERCELARTLKRLGMDGYRGISLANWMCLAKWESGYNTRATNYNAGDRSTDYGIFQINSRYWCNDGKTPGALNACHLSCSALLQDNIADAVACAKRVVRDPQGIRAWVAWRNRCQNRDVRQYVQGCGV | -0.19 kcal/mol |
| MKALIVLGLVLLSVTVQGKVFERCELARTLKRLGMDGYRGISLANWMCLAKWESGYNTRATNYNAGDRSTDYGIFQINSRYWCNDGKTPGAMNACHLSCSALLQDNIADAVACAKRVVRDPQGIRAWVAWRNRCQNRDVRQYVQGCGV | -0.65 kcal/mol |

Same assay, conditions: Homo sapiens; pH 2.7; Thermal; DSC; glycine-HCl 0.05 M; reversible: yes; structure 1LZ1; whole UniProt chain shown

| Variant | Tm | change of melting temperature, mutant - wild type (higher = more stable) | heat capacity change of unfolding | unfolding enthalpy (calorimetric) |
| --- | --- | --- | --- | --- |
| MKALIVLGLVLLSVTVQGKVFERCELARTLKRLGMDGYRGISLANWMCLAKWESGYNTRATNYNAGDRSTDYGIFQINSRYWCNDGKTPGAGNACHLSCSALLQDNIADAVACAKRVVRDPQGIRAWVAWRNRCQNRDVRQYVQGCGV | 64.9 °C |  |  |  |
| MKALIVLGLVLLSVTVQGKVFERCELARTLKRLGMDGYRGISLANWMCLAKWESGYNTRATNYNAGDRSTDYGIFQINSRYWCNDGKTPGALNACHLSCSALLQDNIADAVACAKRVVRDPQGIRAWVAWRNRCQNRDVRQYVQGCGV | 65.3 °C and 65.5 °C and 64.9 °C | 0.6 °C | 1.27 kcal/mol/K | 104 kcal/mol and 103 kcal/mol |
| MKALIVLGLVLLSVTVQGKVFERCELARTLKRLGMDGYRGISLANWMCLAKWESGYNTRATNYNAGDRSTDYGIFQINSRYWCNDGKTPGAMNACHLSCSALLQDNIADAVACAKRVVRDPQGIRAWVAWRNRCQNRDVRQYVQGCGV | 66.9 °C and 64.9 °C | 2 °C | 1.58 kcal/mol/K | 113 kcal/mol and 109 kcal/mol |

Same assay, conditions: Homo sapiens; pH 2.95; Thermal; DSC; glycine-HCl 0.05 M; reversible: yes; structure 1LZ1; whole UniProt chain shown

| Variant | Tm | unfolding enthalpy (calorimetric) |
| --- | --- | --- |
| MKALIVLGLVLLSVTVQGKVFERCELARTLKRLGMDGYRGISLANWMCLAKWESGYNTRATNYNAGDRSTDYGIFQINSRYWCNDGKTPGAGNACHLSCSALLQDNIADAVACAKRVVRDPQGIRAWVAWRNRCQNRDVRQYVQGCGV | 68.7 °C | 121 kcal/mol |

Same assay, conditions: Homo sapiens; pH 3.09; Thermal; DSC; glycine-HCl 0.05 M; reversible: yes; structure 1LZ1; whole UniProt chain shown

| Variant | Tm | unfolding enthalpy (calorimetric) |
| --- | --- | --- |
| MKALIVLGLVLLSVTVQGKVFERCELARTLKRLGMDGYRGISLANWMCLAKWESGYNTRATNYNAGDRSTDYGIFQINSRYWCNDGKTPGAGNACHLSCSALLQDNIADAVACAKRVVRDPQGIRAWVAWRNRCQNRDVRQYVQGCGV | 70.8 °C | 124 kcal/mol |

Same assay, conditions: Homo sapiens; pH 3.3; Thermal; DSC; glycine-HCl 0.05 M; reversible: yes; structure 1LZ1; whole UniProt chain shown

| Variant | Tm | unfolding enthalpy (calorimetric) |
| --- | --- | --- |
| MKALIVLGLVLLSVTVQGKVFERCELARTLKRLGMDGYRGISLANWMCLAKWESGYNTRATNYNAGDRSTDYGIFQINSRYWCNDGKTPGAGNACHLSCSALLQDNIADAVACAKRVVRDPQGIRAWVAWRNRCQNRDVRQYVQGCGV | 74 °C | 129 kcal/mol |

Same assay, conditions: Homo sapiens; pH 2.5; Thermal; DSC; glycine-HCl 0.05 M; reversible: yes; structure 1LZ1; whole UniProt chain shown

| Variant | Tm | unfolding enthalpy (calorimetric) |
| --- | --- | --- |
| MKALIVLGLVLLSVTVQGKVFERCELARTLKRLGMDGYRGISLANWMCLAKWESGYNTRATNYNAGDRSTDYGIFQINSRYWCNDGKTPGALNACHLSCSALLQDNIADAVACAKRVVRDPQGIRAWVAWRNRCQNRDVRQYVQGCGV | 62.4 °C | 100 kcal/mol |
| MKALIVLGLVLLSVTVQGKVFERCELARTLKRLGMDGYRGISLANWMCLAKWESGYNTRATNYNAGDRSTDYGIFQINSRYWCNDGKTPGAMNACHLSCSALLQDNIADAVACAKRVVRDPQGIRAWVAWRNRCQNRDVRQYVQGCGV | 63.4 °C | 107 kcal/mol |

Same assay, conditions: Homo sapiens; pH 2.83; Thermal; DSC; glycine-HCl 0.05 M; reversible: yes; structure 1LZ1; whole UniProt chain shown

| Variant | Tm | unfolding enthalpy (calorimetric) |
| --- | --- | --- |
| MKALIVLGLVLLSVTVQGKVFERCELARTLKRLGMDGYRGISLANWMCLAKWESGYNTRATNYNAGDRSTDYGIFQINSRYWCNDGKTPGALNACHLSCSALLQDNIADAVACAKRVVRDPQGIRAWVAWRNRCQNRDVRQYVQGCGV | 67.5 °C | 107 kcal/mol |
| MKALIVLGLVLLSVTVQGKVFERCELARTLKRLGMDGYRGISLANWMCLAKWESGYNTRATNYNAGDRSTDYGIFQINSRYWCNDGKTPGAMNACHLSCSALLQDNIADAVACAKRVVRDPQGIRAWVAWRNRCQNRDVRQYVQGCGV | 69.4 °C | 117 kcal/mol |

Same assay, conditions: Homo sapiens; pH 3.05; Thermal; DSC; glycine-HCl 0.05 M; reversible: yes; structure 1LZ1; whole UniProt chain shown

| Variant | Tm | unfolding enthalpy (calorimetric) |
| --- | --- | --- |
| MKALIVLGLVLLSVTVQGKVFERCELARTLKRLGMDGYRGISLANWMCLAKWESGYNTRATNYNAGDRSTDYGIFQINSRYWCNDGKTPGALNACHLSCSALLQDNIADAVACAKRVVRDPQGIRAWVAWRNRCQNRDVRQYVQGCGV | 71.6 °C | 112 kcal/mol |

Same assay, conditions: Homo sapiens; pH 3.15; Thermal; DSC; glycine-HCl 0.05 M; reversible: yes; structure 1LZ1; whole UniProt chain shown

| Variant | Tm | unfolding enthalpy (calorimetric) |
| --- | --- | --- |
| MKALIVLGLVLLSVTVQGKVFERCELARTLKRLGMDGYRGISLANWMCLAKWESGYNTRATNYNAGDRSTDYGIFQINSRYWCNDGKTPGALNACHLSCSALLQDNIADAVACAKRVVRDPQGIRAWVAWRNRCQNRDVRQYVQGCGV | 73.3 °C | 114 kcal/mol |

Same assay, conditions: Homo sapiens; pH 3.1; Thermal; DSC; glycine-HCl 0.05 M; reversible: yes; structure 1LZ1; whole UniProt chain shown

| Variant | Tm | unfolding enthalpy (calorimetric) |
| --- | --- | --- |
| MKALIVLGLVLLSVTVQGKVFERCELARTLKRLGMDGYRGISLANWMCLAKWESGYNTRATNYNAGDRSTDYGIFQINSRYWCNDGKTPGAMNACHLSCSALLQDNIADAVACAKRVVRDPQGIRAWVAWRNRCQNRDVRQYVQGCGV | 73.2 °C | 123 kcal/mol |

Same assay, conditions: Homo sapiens; pH 3.2; Thermal; DSC; glycine-HCl 0.05 M; reversible: yes; structure 1LZ1; whole UniProt chain shown

| Variant | Tm | unfolding enthalpy (calorimetric) |
| --- | --- | --- |
| MKALIVLGLVLLSVTVQGKVFERCELARTLKRLGMDGYRGISLANWMCLAKWESGYNTRATNYNAGDRSTDYGIFQINSRYWCNDGKTPGAMNACHLSCSALLQDNIADAVACAKRVVRDPQGIRAWVAWRNRCQNRDVRQYVQGCGV | 75 °C | 125 kcal/mol |
